Data as given in paper PMC4771823, “How the oxygen tolerance of a [NiFe]-hydrogenase depends on quaternary structure” (Journal of Biological Inorganic Chemistry, 2016).

Target: the molecule itself
Test: SEC; Superdex 200 HR 10/30, running buffer with 0.02 % Triton X-100, pH 7.0, 50 mM sodium phosphate, 0.10 M NaCl, 4 °C, 0.15 mL/min; column calibrated with protein standards; dimer peak run again after 5 days at 4 °C; fractions analysed by SDS-PAGE; (αβ)2 dimer to (αβ) monomers

B1: Hydrogenase-1 from E. coli, (αβ) heterodimer of large and small subunit (complex)
chain 1: MSTQYETQGYTINNAGRRLVVDPITRIEGHMRCEVNINDQNVITNAVSCGTMFRGLEIILQGRDPRDAWAFVERICGVCTGVHALASVYAIEDAIGIKVPDNANIIRNIMLATLWCHDHLVHFYQLAGMDWIDVLDALKADPRKTSELAQSLSSWPKSSPGYFFDVQNRLKKFVEGGQLGIFRNGYWGHPQYKLPPEANLMGFAHYLEALDFQREIVKIHAVFGGKNPHPNWIVGGMPCAINIDESGAVGAVNMERLNLVQSIITRTADFINNVMIPDALAIGQFNKPWSEIGTGLSDKCVLSYGAFPDIANDFGEKSLLMPGGAVINGDFNNVLPVDLVDPQQVQEFVDHAWYRYPNDQVGRHPFDGITDPWYNPGDVKGSDTNIQQLNEQERYSWIKAPRWRGNAMEVGPLARTLIAYHKGDAATVESVDRMMSALNLPLSGIQSTLGRILCRAHEAQWAAGKLQYFFDKLMTNLKNGNLATASTEKWEPATWPTECRGVGFTEAPRGALGHWAAIRDGKIDLYQCVVPTTWNASPRDPKGQIGAYEAALMNTKMAIPEQPLEILRTLHSFDPCLACSTH
chain 2: LENKPRIPVVWIHGLECTCCTESFIRSAHPLAKDVILSLISLDYDDTLMAAAGTQAEEVFEDIITQYNGKYILAVEGNPPLGEQGMFCISSGRPFIEKLKRAAAGASAIIAWGTCASWGCVQAARPNPTQATPIDKVITDKPIIKVPGCPPIPDVMSAIITYMVTFDRLPDVDRMGRPLMFYGQRIHDKCYRRAHFDAGEFVQSWDDDAARKGYCLYKMGCKGPTTYNACSSTRWNDGVSFPIQSGHGCLGCAENGFWDRGSFYSRVVDIPQMGTHSTADTVGLTALGVVAAAVGVHAVASAVDQRRRHNQQPTETEHQPGNEDKQA
notes: large (α) subunit of E. coli Hydrogenase-1, holds the [NiFe] active site; printed mass 64.6 kDa; small (β) subunit of E. coli Hydrogenase-1, holds the FeS clusters; printed mass 36.8 kDa; Purified by Ni-NTA, so one subunit should carry a His tag; Cytochrome b subunits are said to be normally lost during homogenisation; Two copies of this heterodimer form the (αβ)2 dimer; also called Hyd-1; Hyd-1 …
stoichiometry N: 2
